The nature of the data set: protein stability index of a GFP-peptide fusion (GPS, HEK-293T) (PSI 1-6); higher = more stable.
The mark [1] stands for this setting: treatment: DMSO, c terminus: a fixed tail appended.
[2] abbreviates: treatment: MLN4924 1 uM, 8 h, c terminus: a fixed tail appended.

± gives the standard deviation.

Our source for the protein stability index values is the supplement of paper PMC10567573.
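Also: 24-mer peptide tiles fused after GFP, lentivirally expressed, FACS-sorted into six equal bins by GFP/DsRed ratio, decoded by Illumina sequencing, PSI is the read-weighted mean bin number.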

As to KTTQEAEKLLERQGQAKTPDSMFL [CDK11A], the protein stability index by setting is: under setting [1], 4.68 ± 0.28; under setting [2], 4.73 ± 0.2.
As for KVHMKDVMSALWVSGLDSSYLREQ [GAN], the protein stability index under setting [1] is 2.1 ± 0.47 and the protein stability index under setting [2] came out at 2.23 ± 0.26.
On to KVIYLDDDVIVQGDIQELYDTTLA [GLT8D2], for which the protein stability index by setting is: under setting [1], 2.65 ± 0.36; under setting [2], 2.94 ± 0.29.
For the sequence KVRALEEANADLEVKIRDWHLKQS [KRT13], the protein stability index under setting [1] was 4.05 ± 0.2 and the protein stability index under setting [2] was found to be 4.22 ± 0.13.
The matching figures for KYTPSNKHGFSWAVPKFMKRIKVP [DLC1]: 2.49 ± 0.36 and 2.6 ± 0.44.
On the same counts, the results for LADDHLIEVNGENVEDASHEEVVE [PDZK1] are 5.65 ± 0.1 and 5.54 ± 0.24.
The matching figures for LAGTQLLYAFFTRTHGDMHSLVRS [TRIB3]: 3.13 ± 0.38 and 3.05 ± 0.35.
On to LALRGRLQLEACGMRRKSLLTRKV [GOLPH3], for which the protein stability index by setting is: under setting [1], 2.26 ± 0.13; under setting [2], 2.41 ± 0.21.
The matching figures for LALYTPVGAAGSARQELLGDRPRW [ANKRD9]: 3.28 ± 0.27 and 2.96 ± 0.21.
As for LANPVLESTPVGTVVGLFNVRDRD [PCDHGC5], the protein stability index is, setting by setting: under setting [1], 4.08 ± 0.35; under setting [2], 4.06 ± 0.34.
On the same counts, the results for LASPHTVAAVLEAVAQTAHLPADS [RSAD1] are 3.61 ± 0.33 and 3.83 ± 0.25.
On the same counts, the results for LDDGEIDEIRWKYHSDTTPKIIES [IQUB] are 4.25 ± 0.23 and 3.98 ± 0.24.
The matching figures for LDISDSISESGGLNWKMTLCLLVA [SLC6A17]: 2.54 ± 0.48 and 2.5 ± 0.79.
In the case of LDKVKDGGYRPAEDKIFPVPEEPP [ZBED1], the protein stability index runs as follows: under setting [1], 5.11 ± 0.18; under setting [2], 5 ± 0.16.
On the same counts, the results for LDMDDGTLSFIVDGQYMGVAFRGL [SPSB1] are 2.61 ± 0.67 and 2.32 ± 0.31.
With LDWISYQVEKNKYDASAIDFSRCD [ELF3], the protein stability index was 2.93 ± 0.23 under setting [1] and 3.01 ± 0.1 under setting [2].
On the same counts, the results for LEAAEVILEHAHRGEQTTSQVSWE [FCHSD1] are 3.63 ± 0.58 and 4.25 ± 0.79.
On the same counts, the results for LEIYQSSQDEPIALDKQHSRDSAA [NOL4L] are 4.89 ± 0.24 and 5.16 ± 0.12.
On the same counts, the results for LELGSYIKDLSVVHSDLSSIVILD [CTDNEP1] are 2.4 ± 0.13 and 2.48 ± 0.62.
LELNFKAGDVIFLLSRINKDWLEG [NCF4]: the protein stability index by setting is: under setting [1], 2.77 ± 0.7; under setting [2], 3.09 ± 1.6.
On the same counts, the results for LEQCSASIEVGGSVNFDGETIEGA [FEM1C] are 5.4 ± 0.3 and 5.14 ± 0.57.
The matching figures for LFMKKNHEEEVKGLQAQIASSGLT [KRT18]: 3.81 ± 0.15 and 3.98 ± 0.27.
Consider LFQFSNCSQGQQLATFSSDWEIQE [CCDC3], for which the protein stability index turned out to be 3.12 ± 0.45 under setting [1] and 2.94 ± 0.33 under setting [2].
LFQLSCSSTQLNELLLFAVGFIMA [OR3A1]: the protein stability index under setting [1] came out at 2.71 ± 0.45 and the protein stability index under setting [2] turned out to be 2.98 ± 0.87.
The matching figures for LFTIPLLYRQHQAQIDQYVGLVTN [RTN2]: 2.81 ± 0.57 and 2.95 ± 0.48.
The matching figures for LFVIVPVLGPLVALIICYNWLHRR [MOG]: 3.38 ± 0.68 and 3.11 ± 0.58.
For LFYKPGIVLLLALAKYLKMNNFL [GULP1], the protein stability index is, setting by setting: (treatment: DMSO, c terminus: native) 2.87 ± 0.92; (treatment: MLN4924 1 uM, 8 h, c terminus: native) 2.87 ± 0.91.
LGAEESLGLLDDYLEVAKHFKPHG [ATF4]: the protein stability index under setting [1] amounted to 3.24 ± 0.33 and the protein stability index under setting [2] came to 3.56 ± 0.36.
The matching figures for LGAVAGLALGPILRLYKHNSQALL [MFSD9]: 2.59 ± 1.1 and 2.43 ± 0.15.
The matching figures for LGHPALSQEEGKSALEDQGSNPSS [PPFIA4]: 5.59 ± 0.21 and 5.25 ± 0.91.
The matching figures for LGKTNAKAVSEMRQKIWNNMPKDH [DYNC2LI1]: 3.38 ± 0.23 and 3.62 ± 0.37.
In the case of LGLSKLARIVEIYSRRLQVQERLT [GCH1], the protein stability index is 2.71 ± 0.65 under setting [1] and 2.2 ± 0.41 under setting [2].
On the same counts, the results for LHKIYLCQSGYFSSMFSGSWKESS [GMCL1] are 2.26 ± 0.82 and 2.18 ± 0.37.
The matching figures for LHKQVLMGPYNPDTCPEVGFFDVL [ACBD3]: 2.4 ± 0.31 and 2.18 ± 0.21.
LHYAAMHGRARIARLMLESEYRSD [ASB7]: the protein stability index was 2.73 ± 0.19 under setting [1] and 2.77 ± 0.28 under setting [2].
In the case of LIANRSYKVSAASSFFFSGVFVGV [SLC22A15], the protein stability index is 2.69 ± 0.8 under setting [1] and 2.49 ± 0.64 under setting [2].
On the same counts, the results for LIFSPCSDCEEEEEEEEEEGSGHS [WEE1] are 4.88 ± 0.19 and 5.03 ± 0.13.
As for LIILWKNGERESGLRSLRLFQKLE [WDR41], the protein stability index is 2.15 ± 0.26 under setting [1] and 2.5 ± 0.49 under setting [2].
The matching figures for LKAFNMFVRLFVDENLDRMVPISK [NOL4L]: 2.67 ± 0.61 and 2.41 ± 0.27.
The matching figures for LKEAPVQDQGYKTLRLRENCVLSS [ZNF8]: 3.88 ± 0.12 and 3.84 ± 0.1.
The matching figures for LKLQTKDGHRPEWTFYPRFSSNIH [SPATS1]: 2.4 ± 0.3 and 2.48 ± 0.32.
With LKTLEEGLEGLEDAPPVELQLLHE [FANCE], the protein stability index reads like this: under setting [1], 4.81 ± 0.26; under setting [2], 4.91 ± 0.38.
The matching figures for LLCAVCYDPFRDAVTLRCGHNFCR [TRIM35]: 2.38 ± 0.23 and 2.46 ± 0.29.
The matching figures for LLDKAGVPPGVVNIVFGTGPRVGE [ALDH8A1]: 2.53 ± 0.16 and 2.76 ± 0.51.
LLELAGEVTDTGDPIVRPLWWIAP [MYORG]: the protein stability index turned out to be 2.46 ± 0.21 under setting [1] and 2.43 ± 0.24 under setting [2].
The matching figures for LLEQAGSLKGSLSVEEQLSLISGC [CRYL1]: 2.98 ± 0.32 and 3.2 ± 0.39.
The matching figures for LLFACSPPPASQPVVKALFGASAA [CDC25A]: 2.44 ± 0.12 and 2.35 ± 0.12.
For LLGALVLLGLGVLLFSGGLSESET [PBXIP1], the protein stability index turned out to be 2.29 ± 0.77 under setting [1] and 2.47 ± 0.89 under setting [2].
For LLGATKRSMVFKDVLLLGNDYIVP [HNF4A], the protein stability index is, setting by setting: under setting [1], 2.28 ± 0.34; under setting [2], 2.3 ± 0.11.
On the same counts, the results for LLHNDEYQETMVESTFMYLTLDLP [USP39] are 2.31 ± 0.29 and 2.29 ± 0.34.
The matching figures for LLKRIKKCCGMRNTDVSMENMVTV [KCNK9]: 2.22 ± 0.52 and 2.32 ± 0.25.
In turn, LLKSHTNVLSVNLPDNFTLKEDGM [TPH1] came in with a protein stability index under setting [1] of 3.15 ± 0.24 and a protein stability index under setting [2] of 3.22 ± 0.34.
On the same counts, the results for LLKTEALKRQAQEEAKGALLGTSG [DAPK3] are 4.89 ± 0.15 and 4.47 ± 0.12.
LLTSPRAINNLVLQGCSSIGLRLV [KLHL14]: the protein stability index was 2.92 ± 0.53 under setting [1] and 2.74 ± 0.69 under setting [2].
On the same counts, the results for LLVGAAVFDALESDHEMREEEKLK [KCNK9] are 4.26 ± 0.34 and 4.29 ± 0.24.
On the same counts, the results for LMFFIMAAMLSMVKYNSCADRPFS [POMT2] are 3.19 ± 0.7 and 3.06 ± 0.32.
The matching figures for LMMRGVKHHNLEGLRKRIATLFFH [IQUB]: 2.34 ± 0.62 and 2.52 ± 0.7.
Regarding LMSYERRQILHLITMMALKVLGEL [TENT5D], the protein stability index stood at 2.67 ± 0.24 under setting [1] and 2.39 ± 0.31 under setting [2].
Turning to LNGDYGENIYPYEEDKDEKSSIYE [MIA2], the protein stability index runs as follows: under setting [1], 3.78 ± 0.7; under setting [2], 3.94 ± 0.72.
For LNKLYPTHACREYLKNLPLLSKYC [TPH1], the protein stability index was determined as 2.41 ± 0.45 under setting [1] and 2.23 ± 0.46 under setting [2].
Turning to LPEKACQLDSRYWRITNAKGDVEE [FBXO3], the protein stability index was determined as 4.47 ± 0.11 under setting [1] and 4.49 ± 0.52 under setting [2].
On the same counts, the results for LPGGTTGLQLPSTLPVSGNLLDVY [TFE3] are 3.24 ± 0.31 and 3.23 ± 0.17.
For the sequence LPLGIKVYEDETKVVHAVDGTAEN [PALM], the protein stability index is, setting by setting: under setting [1], 5.02 ± 0.17; under setting [2], 5.03 ± 0.23.
LQLYFWKDREFHELQGDFSVPDVP [VPS39] yielded a protein stability index under setting [1] of 2.02 ± 0.46 and a protein stability index under setting [2] of 2.17 ± 0.22.
Consider LQREKEFKAKEAAALGSRGSCSTE [ATP6V1G1], for which the protein stability index turned out to be 5.12 ± 0.14 under setting [1] and 5.1 ± 0.48 under setting [2].
On the same counts, the results for LQTLRSFSHTLVSLSLFGCTNIFY [ZER1] are 2.26 ± 0.35 and 3.67 ± 1.3.
On the same counts, the results for LQVIKALKSSGLCESLTYGLPFIL [M1AP] are 3.04 ± 0.94 and 2.81 ± 0.83.
On the same counts, the results for LRARNYEYLIRLFQEWEAHRNLSQ [TCF25] are 2.13 ± 0.38 and 2.18 ± 0.35.
Take LRGKFKRPPLRRVRMSADAMLKAL [TNNI2]: the protein stability index reads like this: under setting [1], 2.25 ± 0.46; under setting [2], 2.4 ± 0.14.
In turn, LRRGHPAGGEENMTETDAFYKREM [CASP6] returned a protein stability index under setting [1] of 4.9 ± 0.2 and a protein stability index under setting [2] of 4.43 ± 0.84.
The matching figures for LRRRIENGAKELWFFLQSELKKLK [FUT8]: 2.85 ± 0.43 and 2.52 ± 0.4.
The matching figures for LRVRELQRKVDGIQKAYDELRLQS [CCDC89]: 3.16 ± 0.13 and 3.42 ± 0.39.
